Patent publication US20200399381A1 (I MAB BIOPHARMA US, published 2020)

T1: human IFNAR-1 protein (form not stated) (human, UniProt P17181 28-436, limits assumed)
T1 construct: bispecific ELISA
T1 sequence (looked up): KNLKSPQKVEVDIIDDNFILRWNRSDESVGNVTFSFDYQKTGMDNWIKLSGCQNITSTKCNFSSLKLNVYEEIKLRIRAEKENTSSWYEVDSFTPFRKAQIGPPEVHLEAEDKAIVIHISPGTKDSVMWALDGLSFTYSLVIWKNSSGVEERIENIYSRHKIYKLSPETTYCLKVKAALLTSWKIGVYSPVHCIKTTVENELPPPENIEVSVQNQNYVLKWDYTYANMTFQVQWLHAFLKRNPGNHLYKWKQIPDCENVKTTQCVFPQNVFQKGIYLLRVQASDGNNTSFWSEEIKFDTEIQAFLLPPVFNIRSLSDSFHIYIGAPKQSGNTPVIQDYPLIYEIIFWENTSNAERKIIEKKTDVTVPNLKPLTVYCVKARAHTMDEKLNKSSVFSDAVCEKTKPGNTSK

T2: human IFNAR-1 on cells (human, UniProt P17181 28-557)
T2 sequence (looked up): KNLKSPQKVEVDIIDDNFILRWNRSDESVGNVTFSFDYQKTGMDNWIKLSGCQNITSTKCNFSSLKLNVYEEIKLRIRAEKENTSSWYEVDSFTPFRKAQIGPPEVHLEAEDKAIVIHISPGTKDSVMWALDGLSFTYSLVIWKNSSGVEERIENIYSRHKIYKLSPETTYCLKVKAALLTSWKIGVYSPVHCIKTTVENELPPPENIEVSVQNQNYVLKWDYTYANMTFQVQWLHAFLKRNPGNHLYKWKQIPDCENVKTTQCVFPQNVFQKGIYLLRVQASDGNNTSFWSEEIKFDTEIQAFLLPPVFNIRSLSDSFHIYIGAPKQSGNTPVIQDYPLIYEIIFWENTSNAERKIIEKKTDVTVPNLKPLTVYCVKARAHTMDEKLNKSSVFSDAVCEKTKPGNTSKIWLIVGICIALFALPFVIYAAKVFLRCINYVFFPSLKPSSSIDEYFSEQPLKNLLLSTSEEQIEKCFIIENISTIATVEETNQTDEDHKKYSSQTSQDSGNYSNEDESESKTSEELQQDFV

T3: recombinant His-tagged human IFNAR-1-ECD protein (human, UniProt P17181 28-436)
T3 construct: extracellular domain; the Biacore text says His-tagged human IFNAR-1-ECD; also called His-tagged IFNAR-1; hIFNAR-1 protein; not shown: His tag
T3 sequence (looked up): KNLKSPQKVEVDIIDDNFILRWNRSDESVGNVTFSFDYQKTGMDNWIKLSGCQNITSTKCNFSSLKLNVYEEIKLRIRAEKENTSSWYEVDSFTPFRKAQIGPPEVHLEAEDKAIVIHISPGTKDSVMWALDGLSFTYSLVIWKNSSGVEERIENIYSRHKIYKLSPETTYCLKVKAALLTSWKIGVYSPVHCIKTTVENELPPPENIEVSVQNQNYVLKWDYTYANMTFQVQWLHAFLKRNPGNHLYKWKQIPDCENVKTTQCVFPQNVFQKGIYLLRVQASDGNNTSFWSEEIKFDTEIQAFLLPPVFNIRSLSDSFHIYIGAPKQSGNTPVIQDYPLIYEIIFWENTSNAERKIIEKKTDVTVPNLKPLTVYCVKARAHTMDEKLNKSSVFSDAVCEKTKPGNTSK


Legend:
[1] = biological target: T1, human IFNAR-1 protein (form not stated); assay: affinity ranking of expressed humanized 8G11 IgGs (method not named)
[2] = biological target: T1, human IFNAR-1 protein (form not stated); assay: affinity measurement of purified IgG at different concentrations (method not named)
[3] = biological target: T1, human IFNAR-1 protein (form not stated); assay: affinity ranking of expressed humanized 485G10 IgGs (method not named)
[4] = biological target: T1, human IFNAR-1 protein (form not stated); assay: affinity measurement of purified IgG at different concentrations (method not named); remark: listed apart in the source
human IFNAR-1 on cells [5] = biological target: T2, human IFNAR-1 on cells; assay: cell-based or functional assay
[6] = biological target: T3, recombinant His-tagged human …; assay: ELISA, coated His-tagged IFNAR-1
Method: This example tested the binding properties of the anti-IFNAR-1 mouse antibodies to the human IFNAR-1 proteins by ELISA assay. In short, His-tagged IFNAR-1 was coated at 0.5 μg/ml overnight and then blocked by 5% BSA in PBS. Serial diluted anti-IFNAR-1 antibodies were incubated with the coated antigen for 1 h at room temperature. The resulting plates were washed with PBS/T and incubated with goat anti-mouse IgG-HRP for 1 h at room temperature. The plates were developed with TMB substrate and analyzed by spectrophotometer at OD 450-630 nm.

[7] = biological target: T3, recombinant His-tagged human …; assay: SPR (Biacore T200), antibody captured, His-tagged IFNAR-1-ECD as analyte
Method: The binding of the antibodies to recombinant His-tagged human IFNAR-1-ECD protein was examined by Biacore T200 using a capture method. The anti-IFNAR-1 antibodies were captured using anti-human Fc antibody or Protein A which were coated on chip. The serial concentrations of his-tagged human IFNAR-1-ECD protein (0-8 nM) were injected over capture antibodies at the flow rate of 30 μl/min. The dissociation phases were 600 s or 1200 s.

human IFNAR-1 on cells [8] = biological target: T2, human IFNAR-1 on cells; assay: cell-based or functional assay; remark: listed apart in the source

Binder | Kd [1] | koff [1] | kon [1] | Kd [2] | koff [2] | kon [2] | EC50 (nM), inhibition of IFNα2b-induced SEAP reporter in HEK-Blue IFNα/β cells (human IFNAR-1 on cells [5]) | EC50 [6] | Kd [7] | koff [7] | kon [7] | further results
8G11-H2L1 (antibody, V domains shown, Humanized IgG expressed in HEK293; also called VH2 + VL1 (8G11)) VH: QVQLVQSGAEVVKPGASVKVSCKGSGFNIKDYYMHWVRQAPGQGLEWIGRIDPEDAETKYAPKFQGRVTMTADTSTSTVYMELSSLRSEDTAVYYCARGGNFYVMDYWGQGTLVTVSS VL: DIQLTQSPSFLSASVGDRVTITCKASQNVGTNVVWYQQKPGKAPKLLIYSASYRVSGVPSRFSGSGSGTEFTLTISSLQPEDFATYYCQQKNNYPYTFGQGTKLEIK | 439 pM | 8.84e-05 s⁻¹ | 202000 M⁻¹ s⁻¹ | 403 pM | 9.24e-05 s⁻¹ | 229000 M⁻¹ s⁻¹ |  |  |  |  |  | 
8G11-H1L1 (antibody, V domains shown, Humanized IgG expressed in HEK293; also called VH1 + VL1 (8G11)) VH: QVQLVQSGAEVKKPGASVKVSCKASGFNIKDYYMHWVRQAPGQGLEWMGRIDPEDAETKYAPKFQGRVTMTRDTSTSTVYMELSSLRSEDTAVYYCARGGNFYVMDYWGQGTLVTVSS VL: DIQLTQSPSFLSASVGDRVTITCKASQNVGTNVVWYQQKPGKAPKLLIYSASYRVSGVPSRFSGSGSGTEFTLTISSLQPEDFATYYCQQKNNYPYTFGQGTKLEIK | 662 pM | 9.83e-05 s⁻¹ | 148000 M⁻¹ s⁻¹ | 1360 pM | 0.000219 s⁻¹ | 161000 M⁻¹ s⁻¹ |  |  |  |  |  | 
8G11-H2L2 (antibody, V domains shown, Humanized IgG expressed in HEK293; also called VH2 + VL2 (8G11)) VH: QVQLVQSGAEVVKPGASVKVSCKGSGFNIKDYYMHWVRQAPGQGLEWIGRIDPEDAETKYAPKFQGRVTMTADTSTSTVYMELSSLRSEDTAVYYCARGGNFYVMDYWGQGTLVTVSS VL: DIQLTQSPSFLSTSVGDRVTITCKASQNVGTNVVWYQQKPGKSPKVLIYSASYRVSGVPSRFSGSGSGTEFTLIISSLQPEDFATYYCQQKNNYPYTFGQGTKLEIK | 328 pM | 9.42e-05 s⁻¹ | 287000 M⁻¹ s⁻¹ | 419 pM | 0.000125 s⁻¹ | 298000 M⁻¹ s⁻¹ |  |  |  |  |  | 
8G11-H4L3 (antibody, V domains shown, Humanized IgG expressed in HEK293; also called VH4 + VL3 (8G11)) VH: QVQLVQSGAEVVKPGASVKLSCKGSGFNIKDYYMHWVKQAPGQGLEWIGRIDPEDAETKYAPKFQGRATITADTSTSTAYLELSSLRSEDTAVYYCARGGNFYVMDYWGQGTLVTVSS VL: DIQLTQSPSFLSTSVGDRVTITCKASQNVGTNVVWYQQKPGKSPKVLIYSASYRVSGVPSRFSGSGSGTEFTLIISSVQPEDFATYFCQQKNNYPYTFGQGTKLEIK | 284 pM | 8.52e-05 s⁻¹ | 301000 M⁻¹ s⁻¹ | 220 pM | 7.47e-05 s⁻¹ | 340000 M⁻¹ s⁻¹ |  |  |  |  |  | 
485G10-H2L3 (antibody, V domains shown, Humanized IgG expressed in HEK293; also called VH2 + VL3 (485G10)) VH: QVQLVQSGAEVKKPGASVKLSCKASGFNIKDYYIHWVKQAPGQGLEWIGRIDPEDAETKYAPKFQGRVTMTADTSISTAYMELSRLRSDDTVVYYCGRYHGYWALDYWGQGTLVTVSS VL: DIQMTQSPSSLSTSVGDRVTITCKTSQNVGTNVAWYQQKPGKAPKPLIYSTSYRYSGVPSRFSGSGSGTDFTLTISSVQPEDFATYYCHQYFSYPYTFGPGTKLDIK |  |  |  |  |  |  |  |  |  |  |  | Kd [3]: 848 pM; koff [3]: 0.000238 s⁻¹; kon [3]: 281000 M⁻¹ s⁻¹; Kd [4]: 1960 pM; koff [4]: 0.000366 s⁻¹; kon [4]: 186000 M⁻¹ s⁻¹
4D8 (antibody, V domains shown, Hybridoma-derived monoclonal antibody; Chimeric human IgG1 Fc versions were also made) VH: EVRLQQSGAELVQPGASVKLSCTGFGFNIKDYYMHWVKQRTEQGLEWIGRIDPEDAETKYAPKFQGQATITADTSSNTAYVQVSSLSSEDTAVYYCARGGNFYVMDYWGQGTSVTVSS VL: DIVMTQSQKFMSTSVGDRVSVTCKASQNVGTNVVWYQQKPGQSPKVLIYSASYRYSGVPDRFTGSGSGTDFTLIISNVQSEDLAEYFCQQKNSYPYTFGGGTKLEIK |  |  |  |  |  |  | 0.46 nM | 67 pM | 39 pM | 9.03e-05 s⁻¹ | 2.31e+06 M⁻¹ s⁻¹ | 
34H8 (antibody, V domains shown, Hybridoma-derived monoclonal antibody) VH: EVQLLQSGAELVKPGASVRLSCTASGFNIKDYYLHWVKQRTEQGLEWIGRIDPEDGETKYAPKFQGKATITTDTSSNTAYLQLSSLTSEDTAVYYCTRGGNYDVMDYWGQGTSVTVSS VL: DIVMTQSQKFMSTSVGDRVSVTCKASQNVGTYVVWYQQKPGQSPKALIYSASYRYSGVPDRFTGSGSGTDFTLTIGNVQSEDLAEYFCQQKNTYPFTFGGGTKLEIE |  |  |  |  |  |  | 0.56 nM | 64 pM | 18.6 pM | 4.41e-05 s⁻¹ | 2.37e+06 M⁻¹ s⁻¹ | 
485G10 chimeric antibody (antibody, V domains shown) VH: EVQLQQSGAELVKPGASVKLSCTGSGFNIKDYYIHWVKQRTEQGLEWIGRIDPEDGETKYAPKFQGKATITADTSSNTAYLQLSSLTSEDTVVYYCGRYHGYWALDYWGQGTSVTVSS VL: DIVMTQSQKFMSTSVGDRVSVTCKTSQNVGTNVAWYQQKPGQSPKPLIYSTSYRYSGVPDRFTGSGSGTDFTLIISNVQSEDLAEYFCHQYFSYPYTFGGGTLLEIK |  |  |  |  |  |  |  |  |  |  |  | EC50 (nM), IFNα2b-mediated anti-viral assay (Huh7-Con1b HCV replicon luciferase) (human IFNAR-1 on cells [8]): 16.3 nM
8G11 (antibody, V domains shown, Hybridoma-derived monoclonal antibody; also called mouse antibody 8G11) VH: EVQLQQSGAELVKPGASVKLSCTGFGFNIKDYYMHWVKQRAEQGLEWIGRIDPEDGETKYAPKFQGKATITADTSSNTAYLQVSSLTSEDTAVYYCARGGNFYVMDYWGQGTSVTVSS VL: DIVMTQSQKFMSTSVGDRVSVTCKASQNVGTNVVWYQQKPGQSPKVLIYSASYRVSGVPDRFTGSGSGTDFTLIISNVQSEDLAEYFCQQKNNYPYTFGGGTKLEIK |  |  |  |  |  |  | 0.465 nM | 69 pM | 27.1 pM | 6.4e-05 s⁻¹ | 2.36e+06 M⁻¹ s⁻¹ | 
